The values that follow come from article PMC8355310, “Using cryo-EM to understand antimycobacterial resistance in the catalase-peroxidase (KatG) from Mycobacterium tuberculosis” (Structure(London, England:1993), 2021).

Positions count from the first letter of the chain named. Names may count otherwise.

First the molecules themselves.
B1: wild-type catalase-peroxidase KatG from Mycobacterium tuberculosis (enzyme)
chain: MPEQHPPITETTTGAASNGCPVVGHMKYPVEGGGNQDWWPNRLNLKVLHQNPAVADPMGAAFDYAAEVATIDVDALTRDIEEVMTTSQPWWPADYGHYGPLFIRMAWHAAGTYRIHDGRGGAGGGMQRFAPLNSWPDNASLDKARRLLWPVKKKYGKKLSWADLIVFAGNCALESMGFKTFGFGFGRVDQWEPDEVYWGKEATWLGDERYSGKRDLENPLAAVQMGLIYVNPEGPNGNPDPMAAAVDIRETFRRMAMNDVETAALIVGGHTFGKTHGAGPADLVGPEPEAAPLEQMGLGWKSSYGTGTGKDAITSGIEVVWTNTPTKWDNSFLEILYGYEWELTKSPAGAWQYTAKDGAGAGTIPDPFGGPGRSPTMLATDLSLRVDPIYERITRRWLEHPEELADEFAKAWYKLIHRDMGPVARYLGPLVPKQTLLWQDPVPAVSHDLVGEAEIASLKSQIRASGLTVSQLVSTAWAAASSFRGSDKRGGANGGRIRLQPQVGWEVNDPDGDLRKVIRTLEEIQESFNSAAPGNIKVSFADLVVLGGCAAIEKAAKAAGHNITVPFTPGRTDASQEQTDVESFAVLEPKADGFRNYLGKGNPLPAEYMLLDKANLLTLSAPEMTVLVGGLRVLGANYKRLPLGVFTEASESLTNDFFVNLLDMGITWEPSPADDGTYQGKDGSGKVKWTGSRVDLVFGSNSELRALVEVYGADDAQPKFVQDFVAAWDKVMNLDRFDVR
modifications: covalent linkage between Trp107, Tyr229 and Met255 (MYW catalytic triad); b-type heme bound in both protomers
notes: also called WT KatG; KatG^INH (with INH added); not shown: His-tag, N-terminal, cleaved
B2: KatG W107R variant from Mycobacterium tuberculosis (enzyme)
chain: B1 chain with W107R
notes: also called W107R KatG; not shown: His-tag, N-terminal, cleaved
B3: KatG T275P variant from Mycobacterium tuberculosis (enzyme)
chain: B1 chain with T275P
notes: Homodimer (C2 symmetry imposed); no ordered heme modelled in either protomer; also called T275P KatG; not shown: His-tag, N-terminal, cleaved

The data set deals with the molecule itself. The experiment in a line: cryo-EM structure.
With B1, the binding result is “binds”.
For the protein B2, the binding result is listed as “binds”.
With B3, the binding result is “binds”.
